From patent US11213590B2, “SSTR-targeted conjugates and particles and formulations thereof” (priority 2016, dated 2022)
Where “and” joins values, the source holds several entries; their conditions need not be identical. Identical values can stand only once. Like-named read-outs stand apart in the source and are kept apart here.

How the values were obtained:
NCI-H69 = assay: cells; type: cell-based, human; conditions: for IC50: 5,000 cells/well
Procedure: (§1) The purpose of this study was to determine the receptor-dependent inhibition of proliferation in vitro by the somatostatin targeting conjugate Conjugate 57 and determine the sensitivity to DM1 in the human SSTR2 expressing cancer cell lines: NCI-H69, NCI-H82, NCI-H727 and HCC-33. Cells were incubated with Conjugate 57 for 6 hours, in the presence or absence of an excess of octreotide, a somatostatin analogue. A three-fold serial dilution of Conjugate 57 was used for a total of ten concentration points. After treatment, cells were washed, incubated for an additional period of time, either 72 or 96 hours and proliferation was measured using the CellTiter-Glo® Luminescent Cell Viability Assay. The IC50 of Conjugate 57 was used to determine the inhibiting activity in proliferation assays. To determine DM1 sensitivity a similar method to the Conjugate 57 assay was employed with the additional incubation time points of 30 minutes, 1, 2, and 4 hours and the exclusion of the pre-treatment with octreotide. DM1 effect from the most to least sensitive cell line was determined to be: NCI-H69>HCC-33>NCI-H82>NCI-H727 (Table 5B). […] The addition of excess octreotide (100 μM) competes with Conjugate 57 for binding to the SSTR2 receptor. […] In the NCI-H69 experiments, pre-incubation with an excess of octreotide modestly diminished the activity of Conjugate 57 by 1.6 and 2.4 fold, depending on the assay conditions. In the HCC-33 cell line, activity of Conjugate 57 was 3.2 (±1.4) times higher when dosed alone, compared to when the cells were pre-incubated with octreotide. The small but measureable changes in Conjugate 57 activity in the presence of excess octreotide seen in the NCI-H69 and HCC-33 cell lines supports the receptor dependence of the Conjugate 57 antiproliferative effect seen in vitro. In summary, although all the cell lines tested in these experiments express the SSTR2 protein, they have different levels of sensitivity to the Conjugate 57 conjugate of which the DM1 sensitivity may be a contributing factor.

NCI-H727 = assay: cells; type: cell-based, human; conditions: for IC50: assay duration 72 h
Procedure: as §1

NCI-H82 = assay: cells; type: cell-based, human; conditions: for IC50: assay duration 72 h
Procedure: as §1

[1] = In vivo cardiovascular and respiratory evaluation; set-up: species or system beagle dog
Procedure: This study was conducted to evaluate the potential cardiovascular and respiratory effects of Conjugate 57 in conscious freely moving naïve male beagle dogs.
Assessments of cardiovascular and respiratory effects and general toxicity were based on mortality, clinical observations, body weight, body temperature, cardiovascular evaluations, i.e., blood pressure (systolic, diastolic, and mean arterial pressures), heart rate, the ECG (QRS duration and the RR, PR, QT, and Corrected QT [QTc] intervals), and respiratory evaluations (respiratory rate, tidal volume, and minute volume). The animals were monitored continuously for at least 2 hours prior to dosing and for 24 hours post dose.

SSTR2 = SSTR2 (Homo sapiens, UniProt P30874); assay: SSTR2 receptor internalization in H524-MD tumor xenograft (IHC staining); type: in vivo; set-up: highly expressing SSTR2 positive (SSTR2+) tumor xenograft; endogenous in cells
Procedure: SSTR2 receptor internalization was studied using Conjugate 57 in a highly expressing SSTR2 positive (SSTR2+) tumor xenograft: H524_MD tumor xenograft. Vehicle (0.1% Solutol/5% Mannitol), Conjugate 57 at 2 mg/kg, scrambled control (BT-984) at 2 mg/kg, and Octreotide at 1.4 mg/kg (ligand alone) were given to SSTR2+ H524-MD tumor xenografts (n=3/group). Timepoints—0 hr (Vehicle), 15 mins, 1 hr, 4 hr, 24 hr and 72 hrs. SSTR2 scoring was done by immunohistochemistry (IHC) staining.

[2] = 5,000 cells/well, excess octreotide (100 μM), read-out: Inhibition of Proliferation IC50 With Octreotide
[3] = 5,000 cells/well, read-out: Inhibition of Proliferation IC50 Without Octreotide
[4] = 10,000 cells/well, excess octreotide (100 μM), read-out: Inhibition of Proliferation IC50 With Octreotide
[5] = 10,000 cells/well, read-out: Inhibition of Proliferation IC50 Without Octreotide
[6] = 0.16 mg/kg iv, segment 1 (>0 to 0.25 hours post dose)
[7] = 0.16 mg/kg iv, segment 2 (>0.25 to 6 hours post dose)
[8] = 0.16 mg/kg iv, segment 3 (>6 to 24 hours post dose)
[9] = 0.20 mg/kg iv, segment 1 (>0 to 0.25 hours post dose)
[10] = 0.20 mg/kg iv, segment 2 (>0.25 to 6 hours post dose)
[11] = 0.20 mg/kg iv, segment 3 (>6 to 24 hours post dose)
[12] = 0.24 mg/kg iv, segment 1 (>0 to 0.25 hours post dose)
[13] = 0.24 mg/kg iv, segment 2 (>0.25 to 6 hours post dose)
[14] = 0.24 mg/kg iv, segment 3 (>6 to 24 hours post dose)

Sequence of SSTR2 (P30874 whole entry): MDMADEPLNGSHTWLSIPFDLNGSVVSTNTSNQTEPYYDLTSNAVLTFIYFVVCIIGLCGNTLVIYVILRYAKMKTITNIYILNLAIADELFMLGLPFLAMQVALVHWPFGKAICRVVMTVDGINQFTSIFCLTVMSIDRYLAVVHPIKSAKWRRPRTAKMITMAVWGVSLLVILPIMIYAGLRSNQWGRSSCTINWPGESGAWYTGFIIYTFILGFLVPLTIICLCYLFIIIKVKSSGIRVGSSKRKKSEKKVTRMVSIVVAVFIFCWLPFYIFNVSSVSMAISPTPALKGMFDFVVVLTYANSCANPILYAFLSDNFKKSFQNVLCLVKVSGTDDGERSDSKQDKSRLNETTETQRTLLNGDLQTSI

## COc1cc2cc(c1Cl)N(C)C(=O)C[C@H](OC(=O)[C@H](C)N(C)C(=O)CCSSC[C@H](NC(=O)[C@@H]1CSSC[C@H](NC(=O)[C@H](N)Cc3ccccc3)C(=O)N[C@@H](Cc3ccc(O)cc3)C(=O)N[C@H](Cc3c[nH]c4ccccc34)C(=O)N[C@@H](CCCCN)C(=O)N[C@@H]([C@@H](C)O)C(=O)N1)C(N)=O)[C@]1(C)O[C@H]1[C@H](C)[C@@H]1C[C@@](O)(NC(=O)O1)[C@H](OC)/C=C/C=C(\C)C2 [Conjugate 57]
NCI-H69; assay duration 72 h, 6 h treatment, read-out: Inhibition of Proliferation IC50 Without Octreotide
  IC50: 108 nM
NCI-H69; assay duration 72 h, excess octreotide (100 μM), read-out: Inhibition of Proliferation IC50 With Octreotide
  IC50: 258 nM
NCI-H69; assay duration 96 h, 6 h treatment, read-out: Inhibition of Proliferation IC50 Without Octreotide
  IC50: 167 nM
NCI-H69; assay duration 96 h, excess octreotide (100 μM), read-out: Inhibition of Proliferation IC50 With Octreotide
  IC50: 271 nM
NCI-H69; depending on the assay conditions
  decrease of activity by pre-incubation with excess octreotide: 1.6 fold and 2.4 fold
NCI-H727; [2]
  IC50: 810 nM
NCI-H727; [3]
  IC50: 3240 nM
NCI-H727; [4]
  IC50: 1900 nM
NCI-H727; [5]
  IC50: 2690 nM
NCI-H727; octreotide 100 μM
  activity in the presence of excess octreotide: not decreased
NCI-H82; [2]
  IC50: 128 nM
NCI-H82; [3]
  IC50: 106 nM
NCI-H82; [4]
  IC50: 1290 nM
NCI-H82; [5]
  IC50: 1050 nM
NCI-H82; octreotide 100 μM
  activity in the presence of excess octreotide: not decreased
[1]; [6]
  Diastolic Blood Pressure, overall segment mean: 100.8 ± 4.1
  Mean Arterial Blood Pressure, overall segment mean: 124.0 ± 4.8
  Systolic Blood Pressure, overall segment mean: 162.8 ± 5.7
[1]; [7]
  Diastolic Blood Pressure, overall segment mean: 102.7 ± 1.5
  Mean Arterial Blood Pressure, overall segment mean: 128.6 ± 2.0
  Systolic Blood Pressure, overall segment mean: 172.2 ± 2.9
[1]; [8]
  Diastolic Blood Pressure, overall segment mean: 99.6 ± 1.9
  Mean Arterial Blood Pressure, overall segment mean: 125.7 ± 2.2
  Systolic Blood Pressure, overall segment mean: 169.2 ± 3.1
[1]; [9]
  Diastolic Blood Pressure, overall segment mean: 99.8 ± 4.2
  Mean Arterial Blood Pressure, overall segment mean: 122.7 ± 4.9
  Systolic Blood Pressure, overall segment mean: 161.1 ± 5.9
[1]; [10]
  Diastolic Blood Pressure, overall segment mean: 97.7 ± 1.5
  Mean Arterial Blood Pressure, overall segment mean: 122.6 ± 2.1
  Systolic Blood Pressure, overall segment mean: 165.7 ± 3.0
[1]; [11]
  Diastolic Blood Pressure, overall segment mean: 93.8 ± 1.9
  Mean Arterial Blood Pressure, overall segment mean: 119.4 ± 2.2
  Systolic Blood Pressure, overall segment mean: 163.4 ± 3.2
[1]; [12]
  Diastolic Blood Pressure, overall segment mean: 112.0 ± 4.1
  Mean Arterial Blood Pressure, overall segment mean: 138.7 ± 4.8
  Systolic Blood Pressure, overall segment mean: 182.0 ± 5.7
[1]; [13]
  Diastolic Blood Pressure, overall segment mean: 104.1 ± 1.5
  Mean Arterial Blood Pressure, overall segment mean: 129.8 ± 2.0
  Systolic Blood Pressure, overall segment mean: 176.3 ± 2.9
[1]; [14]
  Diastolic Blood Pressure, overall segment mean: 97.1 ± 1.9
  Mean Arterial Blood Pressure, overall segment mean: 123.5 ± 2.2
  Systolic Blood Pressure, overall segment mean: 171.1 ± 3.1
[1]; 0.24 mg/kg, from dosing through 1.5 to 2 hours following dosing
  blood pressure, heart rate and respiratory rate: statistically significant increases
[1]; any dose level tested
  effects on QRS duration, ECG morphology, or tidal volume: no test article-related effects
[1]; iv, male beagle dogs, doses up to and including 0.24 mg/kg
  adverse effects on cardiovascular or respiratory function: no adverse effects
[1]; single iv infusion over 6 minutes, 0.16, 0.20 and 0.24 mg/kg, male beagle dogs
  tolerability, clinical observations, mortality: generally well tolerated
SSTR2; 2 mg/kg, H524-MD tumor xenograft
  SSTR2 receptor internalization/distribution in vivo: significant receptor internalization/distribution
SSTR2; 2 mg/kg, versus BT-984 and naïve at 1 hr, 4 hr and 72 hours
  SSTR2 receptor internalization, intensity of staining analysis: significantly different results
SSTR2; 2 mg/kg, versus BT-984 and naïve at 4 hr, 24 hr and 72 hours
  SSTR2 internalization, distribution of staining analysis: significantly different results
SSTR2; Conjugate 57 2 mg/kg, octreotide 1.4 mg/kg
  SSTR2 internalization compared with octreotide alone: more SSTR2 internalization than octreotide alone
